We go through 18 substances from publication PMC4022651, “Substitutional Analysis of the C-Terminal Domain of AbrB Revealed Its Essential Role in DNA-Binding Activity”.

The target in one experiment is AbrB D62A (B. subtilis). Kind of experiment: SEC; analytical gel filtration (FPLC) on Superdex 75 5/150 GL; running buffer condition I: 50 mM HEPES pH 7.5, 300 mM NaCl, 2 mM β-mercaptoethanol, no glycerol; 100 µl protein applied; 0.2 ml/min; polymeric forms as % of the areas under the curve of all protein peaks. In general terms: Size exclusion chromatography separates by hydrodynamic size, large species first.

Experiment [1] concerns the target AbrB E77A (B. subtilis). As to the kind of experiment: SEC; analytical gel filtration (FPLC) on Superdex 75 5/150 GL; running buffer condition II: 50 mM HEPES pH 7.5, 300 mM NaCl, 2 mM β-mercaptoethanol with 10% glycerol; 60 µl (100 µg) protein applied; 0.2 ml/min; polymeric forms as % of the areas under the curve of all protein peaks.
Experiment [2] concerns the target AbrB E77A (B. subtilis). Kind of experiment: SEC; analytical gel filtration (FPLC) on Superdex 75 5/150 GL; running buffer condition I: 50 mM HEPES pH 7.5, 300 mM NaCl, 2 mM β-mercaptoethanol, no glycerol; 100 µl protein applied; 0.2 ml/min; polymeric forms as % of the areas under the curve of all protein peaks.
Another experiment addresses AbrB E85A (B. subtilis). Described as above.
The target in experiment [3] is AbrB K71A (B. subtilis). Kind of experiment: SEC; analytical gel filtration (FPLC) on Superdex 75 5/150 GL; running buffer condition II: 50 mM HEPES pH 7.5, 300 mM NaCl, 2 mM β-mercaptoethanol with 10% glycerol; 60 µl (100 µg) protein applied; 0.2 ml/min; polymeric forms as % of the areas under the curve of all protein peaks.
Experiment [4] has as its target AbrB K71A (B. subtilis). Kind of experiment: SEC; analytical gel filtration (FPLC) on Superdex 75 5/150 GL; running buffer condition I: 50 mM HEPES pH 7.5, 300 mM NaCl, 2 mM β-mercaptoethanol, no glycerol; 100 µl protein applied; 0.2 ml/min; polymeric forms as % of the areas under the curve of all protein peaks.
A further experiment addresses AbrB K76A (B. subtilis). Described as above.
In a further experiment the target is AbrB K94A (B. subtilis). The description is as above.
Experiment [5] addresses AbrB K94I (B. subtilis). As to the kind of experiment: SEC; analytical gel filtration (FPLC) on Superdex 75 5/150 GL; running buffer condition II: 50 mM HEPES pH 7.5, 300 mM NaCl, 2 mM β-mercaptoethanol with 10% glycerol; 60 µl (100 µg) protein applied; 0.2 ml/min; polymeric forms as % of the areas under the curve of all protein peaks.
In experiment [6] the target is AbrB K94I (B. subtilis). Kind of experiment: SEC; analytical gel filtration (FPLC) on Superdex 75 5/150 GL; running buffer condition I: 50 mM HEPES pH 7.5, 300 mM NaCl, 2 mM β-mercaptoethanol, no glycerol; 100 µl protein applied; 0.2 ml/min; polymeric forms as % of the areas under the curve of all protein peaks.
The target in a further experiment is AbrB N88A (B. subtilis). The experiment is described as above.
A further experiment concerns the target AbrB N88D (B. subtilis). The description is as above.
The target of another experiment is AbrB Q55A (B. subtilis). Described as above.
The target in experiment [7] is AbrB Q55E (B. subtilis). Kind of experiment: SEC; analytical gel filtration (FPLC) on Superdex 75 5/150 GL; running buffer condition II: 50 mM HEPES pH 7.5, 300 mM NaCl, 2 mM β-mercaptoethanol with 10% glycerol; 60 µl (100 µg) protein applied; 0.2 ml/min; polymeric forms as % of the areas under the curve of all protein peaks.
The target of experiment [8] is AbrB Q55E (B. subtilis). Kind of experiment: SEC; analytical gel filtration (FPLC) on Superdex 75 5/150 GL; running buffer condition I: 50 mM HEPES pH 7.5, 300 mM NaCl, 2 mM β-mercaptoethanol, no glycerol; 100 µl protein applied; 0.2 ml/min; polymeric forms as % of the areas under the curve of all protein peaks.
Another experiment has as its target AbrB Q81A (B. subtilis). Described as above.
For the next experiment, the target named is AbrB Q87A (B. subtilis). The experiment is described as above.
For the next experiment, the target named is AbrB Q89A (B. subtilis). Described as above.
For experiment [9], the target named is AbrBQ81E (B. subtilis). Kind of experiment: SEC; analytical gel filtration (FPLC) on Superdex 75 5/150 GL; running buffer condition II: 50 mM HEPES pH 7.5, 300 mM NaCl, 2 mM β-mercaptoethanol with 10% glycerol; 60 µl (100 µg) protein applied; 0.2 ml/min; polymeric forms as % of the areas under the curve of all protein peaks.
For experiment [10], the target named is AbrBQ81E (B. subtilis). Kind of experiment: SEC; analytical gel filtration (FPLC) on Superdex 75 5/150 GL; running buffer condition I: 50 mM HEPES pH 7.5, 300 mM NaCl, 2 mM β-mercaptoethanol, no glycerol; 100 µl protein applied; 0.2 ml/min; polymeric forms as % of the areas under the curve of all protein peaks.
The target in experiment [11] is AbrBQ81K, identical with the AbrB of B. amyloliquefaciens FZB45 (B. subtilis (with Q81K: B. amyloliquefaciens FZB45)). The description is as above.
In experiment [12] the target is AbrBR15A (B. subtilis). As to the kind of experiment: SEC; analytical gel filtration (FPLC) on Superdex 75 5/150 GL; running buffer condition II: 50 mM HEPES pH 7.5, 300 mM NaCl, 2 mM β-mercaptoethanol with 10% glycerol; 60 µl (100 µg) protein applied; 0.2 ml/min; polymeric forms as % of the areas under the curve of all protein peaks.
Experiment [13] concerns the target AbrBR15A (B. subtilis). Kind of experiment: SEC; analytical gel filtration (FPLC) on Superdex 75 5/150 GL; running buffer condition I: 50 mM HEPES pH 7.5, 300 mM NaCl, 2 mM β-mercaptoethanol, no glycerol; 100 µl protein applied; 0.2 ml/min; polymeric forms as % of the areas under the curve of all protein peaks.
Experiment [14] addresses wild-type AbrB of B. subtilis 168 (His6-AbrB) (B. subtilis). Kind of experiment: SEC; analytical gel filtration (FPLC) on Superdex 75 5/150 GL; running buffer condition II: 50 mM HEPES pH 7.5, 300 mM NaCl, 2 mM β-mercaptoethanol with 10% glycerol; 60 µl (100 µg) protein applied; 0.2 ml/min; polymeric forms as % of the areas under the curve of all protein peaks.
The target is the same in experiment [15]. Kind of experiment: SEC; analytical gel filtration (FPLC) on Superdex 75 5/150 GL; running buffer condition I: 50 mM HEPES pH 7.5, 300 mM NaCl, 2 mM β-mercaptoethanol, no glycerol; 100 µl protein applied; 0.2 ml/min; polymeric forms as % of the areas under the curve of all protein peaks.

A value given as a limit tells only on which side of the number the result lay.

In the experiment with AbrB D62A (B. subtilis), AbrB D62A (natural protein) displayed a % of the protein (AUC) in the form with n 4.1 of 94% and a % of the protein (AUC) in the form with n 8.2 of 6%.

In the experiment with AbrB E77A (B. subtilis) [1], AbrB E77A (natural protein) gave a % of the protein (AUC) in the form with n 4.7 of 94% and a % of the protein (AUC) in the form with n 55.5 of 6%. In the experiment with AbrB E77A (B. subtilis) [2], this substance came in with a % of the protein (AUC) in the form with n 4.1 of 83% and a % of the protein (AUC) in the form with n 8.2 of 17%.

Take AbrB E85A (natural protein): in the experiment with AbrB E85A (B. subtilis), the % of the protein (AUC) in the form with n 4.0 is 98% and the % of the protein (AUC) in the form with n 8.2 turned out to be 2%.

As a reminder, the stoichiometry N is a count of units in the complex or per binding partner. As to AbrB K71A (natural protein), in the experiment with AbrB K71A (B. subtilis) [3], the % of the protein (AUC) in the form with n 3.9 is more than 95% and the stoichiometry N was 3.9. Moreover, in the experiment with AbrB K71A (B. subtilis) [4], the % of the protein (AUC) in the form with n 4.3 was determined as 86% and the % of the protein (AUC) in the form with n 8.5 was 14%.

In the experiment with AbrB K76A (B. subtilis), AbrB K76A (natural protein) registered a % of the protein (AUC) in the form with n 4.0 of more than 95% and a stoichiometry N of 4.

For the substance AbrB K94A (natural protein), in the experiment with AbrB K94A (B. subtilis), the % of the protein (AUC) in the form with n 4.1 was 93% and the % of the protein (AUC) in the form with n 8.2 was 7%.

On to AbrB K94I (natural protein), for which, in the experiment with AbrB K94I (B. subtilis) [5], the % of the protein (AUC) in the form with n 4.1 is more than 95% and the stoichiometry N stood at 4.1. In the experiment with AbrB K94I (B. subtilis) [6], the % of the protein (AUC) in the form with n 4.7 worked out at 65.6%, the % of the protein (AUC) in the form with n 13.6 was 34.4% and the % of the protein in larger polymeric forms is less than 30%.

In the case of AbrB N88A (natural protein), in the experiment with AbrB N88A (B. subtilis), the % of the protein (AUC) in the form with n 4.5 turned out to be 91% and the % of the protein (AUC) in the form with n 8.1 stood at 9%.

For the substance AbrB N88D (natural protein), in the experiment with AbrB N88D (B. subtilis), the % of the protein (AUC) in the form with n 4.1 came out at 93% and the % of the protein (AUC) in the form with n 8.3 came to 8%.

On to AbrB Q55A (natural protein), for which, in the experiment with AbrB Q55A (B. subtilis), the % of the protein (AUC) in the form with n 3.9 was found to be 92% and the % of the protein (AUC) in the form with n 8.1 came to 8%.

In the experiment with AbrB Q55E (B. subtilis) [7], AbrB Q55E (natural protein) returned a % of the protein (AUC) in the form with n 3.8 of more than 95% and a stoichiometry N of 3.8. In the experiment with AbrB Q55E (B. subtilis) [8], this substance showed a % of the protein (AUC) in the form with n 4.3 of 49% and a % of the protein (AUC) in the form with n 12.3 of 51%.

In the experiment with AbrB Q81A (B. subtilis), AbrB Q81A (natural protein) had a % of the protein (AUC) in the form with n 4.4 of 94% and a % of the protein (AUC) in the form with n 8.5 of 6%.

In the experiment with AbrB Q87A (B. subtilis), AbrB Q87A (natural protein) returned a % of the protein (AUC) in the form with n 4.5 of 93% and a % of the protein (AUC) in the form with n 8.1 of 7%.

For AbrB Q89A (natural protein), in the experiment with AbrB Q89A (B. subtilis), the % of the protein (AUC) in the form with n 4.8 worked out at 93% and the % of the protein (AUC) in the form with n 8.1 turned out to be 7%.

In the experiment with AbrBQ81E (B. subtilis) [9], AbrBQ81E (natural protein) returned a % of the protein (AUC) in the form with n 4.1 of more than 95% and a stoichiometry N of 4.1. In the experiment with AbrBQ81E (B. subtilis) [10], this substance came in with a % of the protein (AUC) in the form with n 3.9 of 78% and a % of the protein (AUC) in the form with n 8.1 of 22%.

In [11], “AbrBQ81K, identical with the AbrB of B. amyloliquefaciens FZB45 (natural protein)” came in with a % of the protein (AUC) in the form with n 4.0 of more than 95% and a stoichiometry N of 4.

On to AbrBR15A (natural protein), for which, in the experiment with AbrBR15A (B. subtilis) [12], the % of the protein (AUC) in the form with n 40.4 amounted to 10% and the % of the protein (AUC) in the forms with 12< n >1 came to 90%. Moreover, in the experiment with AbrBR15A (B. subtilis) [13], the % of the protein (AUC) in the form with n 4.1 came to 57.5% and the % of the protein (AUC) in the form with n 8.0 was 42.5%.

For “wild-type AbrB of B. subtilis 168 (His6-AbrB) (natural protein)”, in [14], the % of the protein (AUC) in the form with n 4.8 was more than 95% and the stoichiometry N turned out to be 4.8. In addition, in experiment [15], the % of the protein (AUC) in the form with n 4.1 worked out at 87% and the % of the protein (AUC) in the form with n 8.2 amounted to 13%.
